Where two headings read alike, the source gives them in different places. Blank lines part the entries; values can stand above or below the molecule they belong to.
Legend:
[1] = system: eYFP-S1PDZ1-MAGI3_3 and eYFP-S1PDZ1-IL16_1 in MCF-7 cells; assay: Pharmacological treatment, peroxisomal enrichment of eYFP-S1PDZ1-MAGI3_3 and eYFP-S1PDZ1-IL16_1; assay type: cell-based; conditions: wortmannin 500 nM, LY294002 50 µM, ionomycin 10 µM
[2] = system: eYFP-S1PDZ1-FYVE in MCF-7 cells; assay: Pharmacological treatment, localization of eYFP-S1PDZ1-FYVE; assay type: cell-based; conditions: wortmannin 500 nM or LY294002 50 µM for 30 min, YM201636 800 nM for 2 h
[3] = system: eYFP-S1PDZ1-CASK in MCF-7 cells; assay: Pharmacological treatment, plasma membrane localization of eYFP-S1PDZ1-CASK; assay type: cell-based
[4] = system: eYFP-S1PDZ1-MPDZ_7 in MCF-7 cells; assay: Pharmacological treatment, plasma membrane localization of eYFP-S1PDZ1-MPDZ_7; assay type: cell-based; conditions: ionomycin 10 µM
[5] = target: C-terminal peptide of usher (FTDTHL); assay: Equilibrium peptide binding titration followed by intrinsic tryptophan fluorescence; conditions: for Kd: Y167W mutation introduced as fluorescent probe, protein 3 µM, 25°C, pH 7.2
Source text: Given the overall low PtdInsPs specificities, and often modest PtdInsPs affinities, it is unlikely that PtdInsPs bindings alone target the PDZ domains to their defined subcellular compartments. Plausibly, peptide interactions are also involved in controlling the subcellular targeting. To address the interplay between PtdInsPs and peptide-binding we chose DFNB31_1 and CASK as models, taking two of the PDZ domains with well-defined cognate peptides. Cognate peptide ligands were the C-terminal peptides of usher (FTDTHL) for DFNB31_1 [50] and the TKEFYA peptide of syndecan-2 for CASK [51]. We measured the PDZ-peptide affinities by a fluorescence-based approach (Fig. 4E), by engineering Trp into the PDZ scaffolds and following the interactions by changes in intrinsic fluorescence, a strategy previously established for other PDZ domains (KD-values: DFNB31_1/Y167W for FTDTHL 46±6 µM; CASK/I157W for TKEFYA 280±20 µM), [52]. We then determined the apparent PtdIns(4,5)P2 affinities in presence of a (close to) saturating concentration of respective peptide (1 mM). The FTDTHL peptide appeared to compete for DFNB31_1-PtdIns(4,5)P2 interactions (KD ^PtdIns(4,5)P2 in presence of peptide >30 µM, Fig. 4F), which might indicate overlapping binding sites. […] We have previously reported on competitive binding by peptide and PtdIns(4,5)P2 with CASK [13]. However, in these experiments the peptide was linked to sepharose beads and PtdIns(4,5)P2 was present on micelles, which made it more difficult for the PDZ domain to simultaneously interact with the two ligands.
(§1) Spectrofluorimetric measurements were performed at 25°C in 25 mM HEPES, 150 mM NaCl, pH 7.2 and 1 mM beta-mercaptoethanol in a Carry Eclipse Spectrofluorimeter (Varian). The peptides corresponded to the C-termini of syndecan-2 (TKEFYA) and usher (FTDTHL) and were of high purity (purity >95%, GeneCust), and the experiment were performed and analyzed as described previously. Urea induced equilibrium unfolding experiments were performed using 1 µM of proteins (excitation 280 nm emission 320–380 nm) and the data fitted by a standard two-state model.

[6] = SPR equilibrium binding of his-tagged PDZ domains to PtdIns(4,5)P2 liposomes; conditions: for Kd: SPR equilibrium analysis, 5% PtdIns(4,5)P2 in DOPC liposomes, 25°C, pH 7.2, read-out: KD app PtdIns(4,5)P2
[7] = Urea induced equilibrium unfolding followed by fluorescence; assay type: physicochemical; conditions: Y167W background, ΔGD-N mut − ΔGD-N wt
Experimental: as §1
The effects of the mutations on the stability were calculated by ΔΔGD −N = ΔGD −Nmut − ΔGD −Nwt, where ΔΔGD-N is the difference between the free energies of unfolding upon mutation.

[8] = target: T1, CASK/I517W (human, UniProt O14936 489-564); assay: other fluorescence titration; equilibrium titration of peptide into Trp-engineered PDZ domain kept constant at 3 µM, followed by intrinsic tryptophan fluorescence; 25°C, 25 mM HEPES, 150 mM NaCl, pH 7.2, 1 mM beta-mercaptoethanol; conditions: both partners purified
T1 chain: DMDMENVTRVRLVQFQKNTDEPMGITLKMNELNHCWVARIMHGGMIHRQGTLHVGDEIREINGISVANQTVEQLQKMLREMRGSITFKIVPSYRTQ

[9] = target: T2, DFNB31_1/R145E (with Y167W) (human, UniProt Q9P202 136-224, R145E | Y167W); assay: as above; conditions: both partners purified
T2 construct: first PDZ domain of human DFNB31 (whirlin); predicted PDZ domain with ten amino acids added on each side
T2 sequence: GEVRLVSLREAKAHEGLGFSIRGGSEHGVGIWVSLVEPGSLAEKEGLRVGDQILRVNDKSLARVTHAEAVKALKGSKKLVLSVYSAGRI

[10] = target: T3, DFNB31_1/R144E (with Y167W) (human, UniProt Q9P202 136-224, R144E | Y167W); assay: as above; conditions: both partners purified
T3 construct: first PDZ domain of human DFNB31 (whirlin); predicted PDZ domain with ten amino acids added on each side
T3 sequence: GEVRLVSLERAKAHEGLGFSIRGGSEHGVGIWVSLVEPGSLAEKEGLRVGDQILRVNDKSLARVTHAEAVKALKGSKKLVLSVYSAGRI

[11] = target: T4, DFNB31_1/K212E (with Y167W) (human, UniProt Q9P202 136-224, K212E | Y167W); assay: as above; conditions: both partners purified
T4 construct: first PDZ domain of human DFNB31 (whirlin); predicted PDZ domain with ten amino acids added on each side
T4 sequence: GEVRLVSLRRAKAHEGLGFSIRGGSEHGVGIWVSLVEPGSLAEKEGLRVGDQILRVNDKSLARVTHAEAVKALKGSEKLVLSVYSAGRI

[12] = target: T5, DFNB31_1/K209E (with Y167W) (human, UniProt Q9P202 136-224, K209E | Y167W); assay: as above; conditions: both partners purified
T5 construct: first PDZ domain of human DFNB31 (whirlin); predicted PDZ domain with ten amino acids added on each side; The text once prints R209E for this mutant; also called R209E (once in the text)
T5 sequence: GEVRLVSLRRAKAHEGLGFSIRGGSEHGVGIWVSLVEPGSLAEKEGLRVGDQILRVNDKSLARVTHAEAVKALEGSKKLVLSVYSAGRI

[13] = target: T6, DFNB31_1/Y167W (human, UniProt Q9P202 136-224, Y167W); assay: as above; conditions: both partners purified
T6 construct: first PDZ domain of human DFNB31 (whirlin); predicted PDZ domain (Interpro, PFAM, SMART) with ten amino acids of the original protein added on each side; also called first PDZ domain of DFNB31 with a Trp probe
T6 sequence: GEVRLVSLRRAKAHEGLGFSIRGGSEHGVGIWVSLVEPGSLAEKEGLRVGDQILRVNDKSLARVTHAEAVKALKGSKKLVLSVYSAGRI

[14] = target: T7, DFNB31_1/K206E (with Y167W) (human, UniProt Q9P202 136-224, K206E | Y167W); assay: as above; conditions: both partners purified
T7 construct: first PDZ domain of human DFNB31 (whirlin); predicted PDZ domain with ten amino acids added on each side
T7 sequence: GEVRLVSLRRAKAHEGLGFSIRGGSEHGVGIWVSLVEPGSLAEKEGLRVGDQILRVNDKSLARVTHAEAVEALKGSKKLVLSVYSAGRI

[15] = MCF-7, ionomycin 10 µM, PAO 100 µM, wortmannin 500 nM

Molecule: COC[C@H]1OC(=O)c2coc3c2[C@@]1(C)C1=C(C3=O)[C@@H]2CCC(=O)[C@@]2(C)C[C@H]1OC(C)=O [wortmannin]
peroxisomal enrichments of eYFP-S1PDZ1-MAGI3_3 and eYFP-S1PDZ1-IL16_1 upon treatment [1]: did not alter
localization of eYFP-S1PDZ1-FYVE upon treatment [2]: lost
plasma membrane localization of eYFP-S1PDZ1-CASK upon treatment [3, 15]: failed to release

Molecule: CCCCOc1cc(C(=O)NCCN(CC)CC)c2ccccc2n1 [dibucaine]
plasma membrane localization of eYFP-S1PDZ1-CASK upon treatment [3, 15]: failed to release

Molecule: C[C@H](CCC(=O)O)C[C@H](C)C[C@H](C)C(=O)/C=C(\O)[C@H](C)C[C@H](C)C/C=C/[C@@H](C)[C@@H](O)[C@@H](C)[C@@H](O)C[C@@H]1CC[C@@](C)([C@H]2CC[C@@](C)([C@@H](C)O)O2)O1 [ionomycin]
peroxisomal enrichments of eYFP-S1PDZ1-MAGI3_3 and eYFP-S1PDZ1-IL16_1 upon treatment [1]: did not alter
plasma membrane localization of eYFP-S1PDZ1-MPDZ_7 upon treatment [4]: not
plasma membrane localization of eYFP-S1PDZ1-CASK upon treatment [3]: loss of membrane localization

Molecule: O=c1cc(N2CCOCC2)oc2c(-c3ccccc3)cccc12 [LY294002, 2-(4-morpholinyl)-8-phenyl-4H-1-benzopyran-4-one]
peroxisomal enrichments of eYFP-S1PDZ1-MAGI3_3 and eYFP-S1PDZ1-IL16_1 upon treatment [1]: did not alter
localization of eYFP-S1PDZ1-FYVE upon treatment [2]: lost

Molecule: Nc1ccc(C(=O)Nc2cccc(-c3nc(N4CCOCC4)c4oc5ncccc5c4n3)c2)cn1 [YM201636]
localization of eYFP-S1PDZ1-FYVE upon treatment [2]: accumulation of eYFP-S1PDZ1-FYVE at the limiting membranes

B7: C-terminal peptide of syndecan-2 (TKEFYA) (peptide)
peptide: TKEFYA
notes: C-terminus of syndecan-2; last six residues; also called TKEFYA peptide of syndecan-2; source: synthetic peptide, bought: GeneCust (purity >95%)
Kd [8]: 280 ± 20 µM

More lines, main results first:

Kd [5]: 46 ± 6 µM
B1: DFNB31_1/Y167W: DFNB31_1 with Y167W mutation as fluorescent probe (protein)
chain: GEVRLVSLRRAKAHEGLGFSIRGGSEHGVGIWVSLVEPGSLAEKEGLRVGDQILRVNDKSLARVTHAEAVKALKGSKKLVLSVYSAGRI
modifications: left off: His6, N-terminal, state not stated
notes: DFNB31_1 with Y167W mutation as fluorescent probe

Kd [5]: 82 ± 3 µM
Kd [6]: > 20 µM
B2: DFNB31_1/R144E: DFNB31_1 PDZ domain mutant R144E (protein)
chain: GEVRLVSLERAKAHEGLGFSIRGGSEHGVGIWVSLVEPGSLAEKEGLRVGDQILRVNDKSLARVTHAEAVKALKGSKKLVLSVYSAGRI
modifications: left off: His6, N-terminal, state not stated
ΔΔGD-N [7]: -0.65 ± 0.05 kcal/mol

Kd [5]: 175 ± 15 µM
Kd [6]: > 20 µM
B3: DFNB31_1/K209E: DFNB31_1 PDZ domain mutant K209E (protein)
chain: GEVRLVSLRRAKAHEGLGFSIRGGSEHGVGIWVSLVEPGSLAEKEGLRVGDQILRVNDKSLARVTHAEAVKALEGSKKLVLSVYSAGRI
modifications: left off: His6, N-terminal, state not stated
ΔΔGD-N [7]: -0.15 ± 0.01 kcal/mol

Kd [5]: 220 ± 40 µM
Kd [6]: > 20 µM
B4: DFNB31_1/K212E: DFNB31_1 PDZ domain mutant K212E (protein)
chain: GEVRLVSLRRAKAHEGLGFSIRGGSEHGVGIWVSLVEPGSLAEKEGLRVGDQILRVNDKSLARVTHAEAVKALKGSEKLVLSVYSAGRI
modifications: left off: His6, N-terminal, state not stated
ΔΔGD-N [7]: 1.2 ± 0.1 kcal/mol

Kd [5]: 71 ± 8 µM
Kd [6]: 15 ± 5 µM
decrease in PtdIns(4,5)P2 binding upon mutation ([6]; versus wild type DFNB31_1): 2 fold
B5: DFNB31_1/R145E: DFNB31_1 PDZ domain mutant R145E (protein)
chain: GEVRLVSLREAKAHEGLGFSIRGGSEHGVGIWVSLVEPGSLAEKEGLRVGDQILRVNDKSLARVTHAEAVKALKGSKKLVLSVYSAGRI
modifications: left off: His6, N-terminal, state not stated
ΔΔGD-N [7]: -0.53 ± 0.05 kcal/mol

Kd [5]: 111 ± 8 µM
decrease in peptide binding affinity upon mutation ([5]; versus DFNB31_1 (Y167W background)): 2 fold
Kd [6]: 8.2 ± 2 µM
B6: DFNB31_1/K206E: DFNB31_1 PDZ domain mutant K206E (protein)
chain: GEVRLVSLRRAKAHEGLGFSIRGGSEHGVGIWVSLVEPGSLAEKEGLRVGDQILRVNDKSLARVTHAEAVEALKGSKKLVLSVYSAGRI
modifications: left off: His6, N-terminal, state not stated
ΔΔGD-N [7]: 0.41 ± 0.03 kcal/mol

Kd [9]: 71 ± 8 µM
Kd [10]: 82 ± 3 µM
Kd [11]: 220 ± 40 µM
Kd [12]: 175 ± 15 µM
Kd [13]: 46 ± 6 µM
Kd [14]: 111 ± 8 µM
B8: C-terminal peptide of usher (FTDTHL) (peptide)
peptide: FTDTHL
notes: last six residues; also called FTDTHL peptide; source: synthetic peptide, bought: GeneCust (purity >95%)

Reference: PMC3563628, “Prevalence, Specificity and Determinants of Lipid-Interacting PDZ Domains from an In-Cell Screen and In Vitro Binding Experiments” (PLoS ONE, 2013)
